Reference: publication PMC4374768

Tests used:
[1] = biological target: T1, His6-TyrR (Enterobacter cloacae UW5?) (UniProt B2D1S2); assay: EMSA; conditions: 20% glycerol, 250 mM NaCl, 50 mM Tris-Cl pH 7.5, 5 mM MgCl2, 2.5 mM DTT, 2.5 mM EDTA, 0.1 mM ATP, 0.1 mM Trp, Phe or Tyr, 1 ug poly d(I-C), 50 ng DNA, room …
T1 sequence: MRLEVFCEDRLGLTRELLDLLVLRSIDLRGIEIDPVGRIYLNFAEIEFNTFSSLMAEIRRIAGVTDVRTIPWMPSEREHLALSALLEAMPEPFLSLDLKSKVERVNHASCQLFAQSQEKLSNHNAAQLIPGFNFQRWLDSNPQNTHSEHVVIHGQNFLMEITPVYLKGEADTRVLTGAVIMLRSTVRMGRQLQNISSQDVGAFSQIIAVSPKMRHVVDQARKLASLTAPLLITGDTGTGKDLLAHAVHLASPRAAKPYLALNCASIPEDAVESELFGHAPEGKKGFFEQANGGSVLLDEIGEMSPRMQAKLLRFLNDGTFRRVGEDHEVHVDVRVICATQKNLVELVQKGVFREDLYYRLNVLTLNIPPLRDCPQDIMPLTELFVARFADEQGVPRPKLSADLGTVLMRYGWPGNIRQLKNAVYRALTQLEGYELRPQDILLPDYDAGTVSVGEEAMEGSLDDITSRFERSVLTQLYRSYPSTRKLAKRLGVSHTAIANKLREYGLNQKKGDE

[2] = biological target: T1, His6-TyrR (Enterobacter cloacae UW5?); assay: competition; conditions: 20% glycerol, 250 mM NaCl, 50 mM Tris-Cl pH 7.5, 5 mM MgCl2, 2.5 mM DTT, 2.5 mM EDTA, 0.1 mM ATP, 0.1 mM Trp, Phe or Tyr, 1 ug poly d(I-C), 50 ng DNA, room …

“GGTTCGCATAACAGGTGTCCTTCTGACGTTGACCTCACTTTGAGTATTAAAGAAGCGTGATGGCTGTCCAGAATTGGTCGTAAGAAGGGCATAGAAAGAATGCTTTATAAAAAAGGCTGCGCTATGCTCTTTTTTTTCATGTAAATGTAAACGTATACACTGATTTTTCCTTTCAGCGCCAGAGGGCATCAGAATGGG (double strand) [akr-ipdC strong box mutant]” was tested, and the binding [1] was “binds more weakly”.

For “GGTTCGCATAACAGGTGTCCTTCTGACGTTGACCTCACTTTGAGTATTAAAGAAGCGTGATGGCTGTCCAGAATTGGTCGTAAGAAGGGCATGGAAAGAATGCTTTACAAAAAAGGCTGCGCTATGCTCTTTTTTTTCATATAAATATAAACGTATATACTGATTTTTCCTTTCAGCGCCAGAGGGCATCAGAATGGG (double strand) [akr-ipdC weak box mutant]”, the binding [1] was “binds”.

For “GGTTCGCATAACAGGTGTCCTTCTGACGTTGACCTCACTTTGAGTATTAAAGAAGCGTGATGGCTGTCCAGAATTGGTCGTAAGAAGGGCATGGAAAGAATGCTTTACAAAAAAGGCTGCGCTATGCTCTTTTTTTTCATGTAAATGTAAACGTATACACTGATTTTTCCTTTCAGCGCCAGAGGGCATCAGAATGGG (double strand) [akr-ipdC intergenic region wild-type]”, the binding [1] was “binds” and the binding [2] was “binds”.

In the case of “GGTTCGCATAACAGGTGTCCTTCTGACGTTGACCTCACTTTGAGTATTAAAGAAGCGTGATGGCTGTCCAGAATTGGTCGTAAGAAGGGCATAGAAAGAATGCTTTATAAAAAAGGCTGCGCTATGCTCTTTTTTTTCATATAAATATAAACGTATATACTGATTTTTCCTTTCAGCGCCAGAGGGCATCAGAATGGG (double strand) [akr-ipdC double weak and strong box mutant]”, the binding [1] is reported as “no binding”.
